The values that follow come from patent publication US20210206861A1.

The target of test [1] is IL-4R-ECD-FLAG (human) (UniProt P24394). Description: ELISA on coated IL-4R-ECD-FLAG (100 ng/ml), HRP goat anti-human secondary. Background: An ELISA detects its analyte on a solid surface through an enzyme-linked reagent.
The target is the same in test [2]. The test is described as follows: SPR, Biacore T200; antibody captured on Protein A/G CM5 chip, IL-4R-ECD-FLAG injected. A general note: In SPR one partner is held on a chip, and binding of the other changes the refractive index at the surface.
Test [3] concerns the target Biotinated IL-4R-ECD-hFc (human) (UniProt P24394). The test is described as follows: blocking ELISA: coated IL-4-hFc (2000 ng/ml), biotinylated IL-4R-ECD-hFc (100 ng/ml) with antibody in dilution series, Streptavidin-HRP.

B1: Dupilumab (antibody, INN chains, looked up, V domains shown)
VH: EVQLVESGGGLEQPGGSLRLSCAGSGFTFRDYAMTWVRQAPGKGLEWVSSISGSGGNTYYADSVKGRFTISRDNSKNTLYLQMNSLRAEDTAVYYCAKDRLSITIRPRYYGLDVWGQGTTVTVSS
VL: DIVMTQSPLSLPVTPGEPASISCRSSQSLLYSIGYNYLDWYLQKSGQSPQLLIYLGSNRASGVPDRFSGSGSGTDFTLKISRVEAEDVGFYYCMQALQTPYTFGQGTKLEIKR
By EC50 is commonly meant the midpoint of the concentration-response curve. Low readings indicate a more potent agent, high ones a less potent agent. As a reminder, the Kd is the equilibrium constant for the complex coming apart. A word on the koff: it is the first-order rate constant of dissociation. Higher therefore signals fast dissociation. One may read the kon as the rate constant with which the complex forms. Low readings indicate slower complex formation, high ones faster complex formation. The IC50 is the concentration needed to halve the response being measured. The low end stands for greater potency, the high end for weaker potency. As for B1, the concentration for a half-maximal effect (EC50) with IL-4R-ECD-FLAG (human) [1] worked out at 0.0125 µg/mL. In the test with IL-4R-ECD-FLAG (human) [2], the Kd is 0.671 nM, the off-rate (koff) came out at 3.95e-05 s⁻¹ and the kon came out at 58800 M⁻¹ s⁻¹. This molecule also had an IC50 in test [3] of 0.138 µg/mL.
